maleimide‑FITC = FITC conjugated through maleimide to the Cys of the Cys-containing CCK8 peptide
T1: human CCK8-type B receptor molecules on Panc-1 tumor cell line (Homo sapiens, UniProt P32239)
T1 construct: human CCK8-type B receptor molecules on Panc-1 tumor cell line; endogenous in cells; host or cells: Panc-1 pancreatic carcinoma cell line
T1 sequence (P32239 1-447): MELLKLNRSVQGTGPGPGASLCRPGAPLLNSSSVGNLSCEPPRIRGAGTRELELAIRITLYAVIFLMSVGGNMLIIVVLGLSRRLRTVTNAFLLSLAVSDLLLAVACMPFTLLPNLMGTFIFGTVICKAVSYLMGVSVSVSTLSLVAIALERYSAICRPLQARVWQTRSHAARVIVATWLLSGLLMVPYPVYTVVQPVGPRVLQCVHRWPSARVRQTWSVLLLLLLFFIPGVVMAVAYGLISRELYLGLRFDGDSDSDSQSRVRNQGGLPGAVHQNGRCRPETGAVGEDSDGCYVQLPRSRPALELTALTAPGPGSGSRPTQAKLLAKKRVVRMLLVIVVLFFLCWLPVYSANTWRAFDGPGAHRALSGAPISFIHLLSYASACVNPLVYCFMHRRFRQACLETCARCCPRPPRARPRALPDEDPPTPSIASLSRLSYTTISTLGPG

B1: mutated teplizumab: scFv of teplizumab with CDR3 VH cysteine substituted by serine, SEQ ID NO: 21 (protein)
scFv: QVQLVQSGGGVVQPGRSLRLSCKASGYTFTRYTMHWVRQAPGKGLEWIGYINPSRGYTNYNQKVKDRFTISRDNSKNTAFLQMDSLRPEDTGVYFCARYYDDHYSLDYWGQGTPVTVSSGSTSGSGKPGSGEGSTKGDIQMTQSPSSLSASVGDRVTITCSASSSVSYMNWYQQTPGKAPKRWIYDTSKLASGVPSRFSGSGSGTDYTFTISSLQPEDIATYYCQQWSSNPFTFGQGTKLQITRGGGGSGGGGSC
B2: DBCO-conjugated scFv specific for CD3: mutated teplizumab scFv conjugated at C-terminal cysteine with Mal-PEG5-DBCO (conjugate)
scFv: B1 scFv

Experiments:
[1] = biological target: T1, human CCK8-type B receptor molecules on Panc-1 tumor cell line; experiment: Staining analysis (FACS) of binding of CCK8 peptide to CCK-type B receptor-expressing tumor cell line; format: cell-based; settings: 150 μg/ml CCK8-FITC reaction mixture, on ice 30 minutes, FIG. 24
Protocol: The CCK8 peptide molecule was analyzed for its ability to bind to human CCK8-type B receptor molecules on Panc-1 tumor cell line. Panc-1 was established from a pancreatic carcinoma, which was extracted via pancreatico-duodenectomy specimen from an individual. Malignancy of this cell line was verified via in vitro and in vivo assays. Prior to staining, the Cys-containing CCK8 peptide was conjugated with maleimide-FITC to produce a FITC-labeled CCK8 peptide as a detective CCK8 molecule with FITC. The assay was then performed by incubating 2×10^6 Panc-1 cells with 150 μg/ml of the reaction mixture of CCK8-FITC molecule in PBS, with 1 FBS and 1% sodium azide on ice for 30 minutes in the dark. The staining of maleimide-FITC alone was used a negative control. The staining of cells was analyzed by FACS (FACSCanto II; BD Biosciences). The x-axis of histogram is the fluorescence intensity. In FIG. 24, the dark area represents the background of fluorescence distribution of Panc-1 cells, the dashed line is the fluorescence distribution of Panc-1 cells stained maleimide-FITC and the dark line is the fluorescence distribution of Panc-1 cells stained CCK8-FITC.

[2] = biological target: T2, human CD3 on Jurkat T cell line (Homo sapiens, UniProt P07766); experiment: Staining analysis (FACS) of binding of anti-CD3 scFv to T cells; format: cell-based
T2 construct: human T lymphocyte cell which express the T cell receptor (TcR)/CD3 complexes on the cell surface; endogenous in cells; host or cells: Jurkat T cell line
T2 sequence (P07766 23-207): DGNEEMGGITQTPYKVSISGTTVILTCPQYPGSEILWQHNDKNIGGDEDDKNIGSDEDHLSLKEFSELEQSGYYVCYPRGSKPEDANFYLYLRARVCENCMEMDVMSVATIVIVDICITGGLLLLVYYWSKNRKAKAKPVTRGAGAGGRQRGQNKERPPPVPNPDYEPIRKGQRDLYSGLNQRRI
T2 sequence (P09693 23-182 partner): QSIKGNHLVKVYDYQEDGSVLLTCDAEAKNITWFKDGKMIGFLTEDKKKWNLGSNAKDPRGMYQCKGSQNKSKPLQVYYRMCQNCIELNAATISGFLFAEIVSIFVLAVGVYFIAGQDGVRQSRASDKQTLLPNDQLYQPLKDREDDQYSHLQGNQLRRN
T2 sequence (P04234 22-171 partner): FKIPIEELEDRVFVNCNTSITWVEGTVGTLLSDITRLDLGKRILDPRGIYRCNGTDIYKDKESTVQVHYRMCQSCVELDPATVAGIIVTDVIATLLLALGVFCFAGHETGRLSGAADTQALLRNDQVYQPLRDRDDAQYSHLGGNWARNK
T2 sequence (P20963 22-164 partner): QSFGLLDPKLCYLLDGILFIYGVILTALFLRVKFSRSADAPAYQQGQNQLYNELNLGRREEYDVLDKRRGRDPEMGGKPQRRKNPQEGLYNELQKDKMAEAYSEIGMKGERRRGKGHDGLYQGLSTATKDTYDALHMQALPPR
T2 sequence (P01848 whole entry partner): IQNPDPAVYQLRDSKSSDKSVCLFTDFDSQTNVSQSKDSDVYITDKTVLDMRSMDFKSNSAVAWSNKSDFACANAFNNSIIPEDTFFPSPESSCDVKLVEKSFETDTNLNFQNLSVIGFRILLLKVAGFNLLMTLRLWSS
T2 sequence (P01850 whole entry partner): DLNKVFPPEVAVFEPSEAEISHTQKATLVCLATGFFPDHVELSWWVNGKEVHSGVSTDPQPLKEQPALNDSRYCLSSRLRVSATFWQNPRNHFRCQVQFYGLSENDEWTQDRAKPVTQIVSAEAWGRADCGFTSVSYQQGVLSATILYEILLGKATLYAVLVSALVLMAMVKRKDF
Protocol: The ability of the mutated teplizumab to bind to human T lymphocytes, which express CD3 was studied with Jurkat T cell line. The mutated teplizumab was analyzed for their ability to bind to human CD3 molecules on Jurkat T cell line. Jurkat cells are immortalized line of human T lymphocyte cell which express the T cell receptor (TcR)/CD3 complexes on the cell surface.
The assay was performed by incubating 2×10^6 Jurkat T cells with 0.1 and 1 μg/ml of the scFv in PBS with 1 FBS and 0.1% sodium azide on ice for 30 minutes. Cells were washed and incubated with FITC-conjugated Protein L (ACROBiosystems Inc., Newark, USA), diluted 1:200 in PBS/FBS, at 4° C. for 30 minutes in the dark. Protein L-FITC and FITC-conjugated rabbit anti-mouse IgG.Fc (AbD Serotec) were used as secondary antibodies. The staining of secondary antibodies alone were as negative controls. OKT3, a mouse monoclonal antibody specific for human CD3, was used as the positive control. The staining of cells was analyzed by FACS (FACSCanto II; BD Biosciences). The x-axis of histogram is the fluorescence intensity.
The purity of DBCO-conjugated scFvs specific for CD3 was identified through Coomassie staining of 12% SDS-PAGE (data not shown).

[3] = flow cytometric analysis, FIG. 23C

Molecule	binding to Panc-1 cells [1]	binding to T cells ([2]; Jurkat T cells, 0.1 and 1 μg/ml scFv, on ice 30 minutes, FITC-conjugated Protein L, FACS, FIG. 23B)	binding to T cells [2, 3]
FITC-labeled CCK8 peptide (Ac-C(maleimide‑FITC)GGGGSDYMGWMDF-NH2; ends and bridges not checked)	bound to Panc-1 cells	–	–
B1	–	bound to T cells	bound to T cells
B2	–	–	bound to T cells
